Columns and labels:
[1] = target: Lymphocyte Function-associated Antigen-1 (LFA-1), on cells (human) (UniProt P20701)
[2] = target: Lymphocyte Function-associated Antigen-1 (LFA-1), on cells (human) (UniProt P20701); remark: listed apart in the source
[3] = target: ICAM-1 A115N/SV (printed A155N/SV at paragraph 410) (human) (UniProt P05362); assay: 35S-HRV14 on COS cells
[4] = target: ICAM-1 N269QSQI/IQAEQ (human) (UniProt P05362); assay: 35S-HRV14 on COS cells
ICAM-1 S5/T (human) = ICAM-1 S5/T (human) (UniProt P05362); assay: 35S-HRV14 on COS cells
[5] = target: Intercellular Adhesion Molecule-1 (ICAM-1), wild type, on the cell surface (human) (UniProt P05362)
[6] = target: Intercellular Adhesion Molecule-1 (ICAM-1), wild type, on the cell surface (human) (UniProt P05362); remark: listed apart in the source
ICAM-1 Y476/TAG (human) = ICAM-1 Y476/TAG (human) (UniProt P05362)
purified ICAM-1 (human) = purified ICAM-1 (human) (UniProt P05362)

## anti-LFA-1 antibody R3.1
[1]
  % inhibition of the mixed lymphocyte reaction: 93 % inhibition

## anti-LFA-1 monoclonal antibody TS1/18
[2]
  binding of JY cells to ICAM-1 in plastic-bound vesicles: 96 % inhibition

## human rhinovirus 14 (HRV14) (from UniProt P03303)
[3]
  HRV Binding % (% of wild type): 12
[4]
  HRV Binding % (% of wild type): 108
ICAM-1 S5/T (human)
  HRV Binding % (% of wild type): 125

## monoclonal antibody RR1/1
[5]
  % inhibition of PMA-stimulated PHA-lymphoblast aggregation: 51 % inhibition
[6]
  % of cells expressing ICAM-1 that bind LFA-1 in the presence of RR1/1: 0%
ICAM-1 Y476/TAG (human)
  % of cells expressing ICAM-1 that bind LFA-1 in the presence of RR1/1: 0%
Purified ICAM-1 (human)
  binding of JY cells to ICAM-1 in plastic-bound vesicles: 97 % inhibition

Source: patent US20090035321A1, “Intercellular adhesion molecules and their binding ligands” (Boehringer Ingelheim Pharmaceuticals, Inc., published 2009)
